# Reference: patent publication US20190270818A1 (Eli Lilly, published 2019)
# T1: Cynomolgus monkey PD1-extracellular domain (ECD)-His (cynomolgus monkey)
# T1 construct: Expressed in CHO cells, purified by IMAC and size exclusion; also called cynomolgus monkey PD-1 ECD; cynomolgus PD1-ECD-his
# T1 chain: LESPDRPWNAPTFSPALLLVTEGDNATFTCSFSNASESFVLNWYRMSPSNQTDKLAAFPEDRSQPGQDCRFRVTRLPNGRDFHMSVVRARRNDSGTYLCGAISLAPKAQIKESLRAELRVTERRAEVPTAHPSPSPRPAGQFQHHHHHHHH
# T2: Cynomolgus monkey PD-1 (cell membrane expressed) (cynomolgus monkey, UniProt Q15116 25-288 (human entry))
# T2 construct: Stably expressed on CHO-K1 cells; no cleavage site is stated; also called cyno PD-1; cynomolgus PD-1
# T2 chain: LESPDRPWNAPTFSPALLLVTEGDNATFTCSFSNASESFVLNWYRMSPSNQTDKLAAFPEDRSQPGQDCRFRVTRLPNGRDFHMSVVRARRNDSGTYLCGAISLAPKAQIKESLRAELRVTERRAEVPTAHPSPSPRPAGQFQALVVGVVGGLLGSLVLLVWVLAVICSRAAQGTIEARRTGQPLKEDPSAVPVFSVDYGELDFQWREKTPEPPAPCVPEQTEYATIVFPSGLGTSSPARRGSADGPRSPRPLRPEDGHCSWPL
# Experiments:
# [1] = molecular target: T3, Human PD-1 (cell membrane expressed) (human, UniProt Q15116 25-288); assay: cell-based or functional assay
# [2] = molecular target: T3, Human PD-1 (cell membrane expressed); assay: flow cytometry on CHO cells expressing human PD-1, GMFI, 4-parameter fit, average
# Description: (§1) The ability of the anti-human PD-1 agonist antibodies disclosed herein to bind to cell surface human or cynomolgus monkey PD-1 can be measured using a flow cytometric assay. Human and cynomolgus monkey PD-1 (i.e., as shown in SEQ ID NOs: 13 and 15, respectively) expressing stable cells are generated by transfecting human or cynomolgus monkey PD-1 plasmid DNA into Chinese Hamster Ovary cells (CHO-kl; Lonza) using an electroporation system (Gene Pulser Xcell; BioRad) according to established protocols. Stable cells are selected from single isolated cells using 500 μg/mL G418 (Thermo Scientific) in culture medium. For flow cytometry, the cells are transferred into a 96-well V-bottom plate at density of 1×10⁵ cells/well. The cells are washed with 1×FACS buffer (Becton Dickinson #554656). Antibody 1, or control human IgG1 (diluted in FACS buffer in a three-fold 12-point titration of the antibodies, starting at 100 micrograms/mL) are added (in 100 microliters) and cells are incubated at 4° C. for 30 minutes.
# (§2) After washing twice in FACS buffer, live/dead cell staining is performed using SytoxBlue (Invitrogen, #S34857) per manufacturer's protocol. […] Flow cytometry data is analyzed using FlowJo software. Geometric Mean Fluorescence Intensity (GMFI) values are used to calculate relative EC₅₀ based on 4-parameter logistic regression.
# [3] = molecular target: T4, Human PD1-extracellular domain (ECD)-His (human, UniProt Q15116 25-167); assay: SPR, Biacore 8K, 25° C., mAb captured on protein A, PD1-ECD-His as analyte, n=1
# T4 construct: Expressed in CHO cells, purified by IMAC and size exclusion; also called human PD-1 ECD; human PD1-ECD-his
# Experimental: (§3) The binding kinetics of an anti-human PD-1 agonist antibody of the invention to human and cynolmolgus monkey PD-1 ECDs may be determined by use of a surface plasmon resonance biosensor such as BIAcore® 2000, BIAcore® 3000, BIAcore® 8K, or a BIAcore® T100 (GE Healthcare, Piscataway, N.J.). Briefly described, a BIAcore® 8K instrument is used to measure the binding kinetics for Antibody 1 to human and cynomolgus monkey PD1-extracellular domain (ECD)-His via surface plasmon resonance (SPR) at 25° C. Samples are dissolved in 1×HBS-EP+ running buffer (Teknova cat. # H8022) and a protein A coupled CMS Series S sensor chip (GE Healthcare Cat #29139131-AA) is utilized to capture mAb. Human and cynomolgus monkey PD1-ECD proteins which contain a C-terminal 8× histidine tag are expressed in CHO cells and purified by nickel charged IMAC followed by size exclusion.
# (§4) Binding is evaluated using multiple analytical cycles. Each cycle is performed at 25° C. at a flow rate of 10 μl/minute for mAb capture and 30 μl/minute for ligand association and dissociation. Each cycle consists of the following steps: injection of mAb at 2 μg/ml for 60 s contact time targeting a capture level of approximately 220RUs on flow cell 2, injection of 150 seconds of human or cynomolgus PD1-ECD-his (concentration range of 400 nM to 1.6 nM by four fold serial dilution) followed by 600 second dissociation phase, and regeneration using 10 mM glycine hydrochloride, pH 1.5 over a 30 second contact time. Association (i.e., Kon) and dissociation rates (i.e., Koff) for each cycle are evaluated using standard double referencing and fit to “1:1 (Langmuir) binding” model in the Biacore 8K evaluation in parallel kinetics batch mode. The affinity (KD) is calculated from the binding kinetics according to the relationship KD=Koff/Kon.
# [4] = molecular target: T1, Cynomolgus monkey PD1-extracellular …; assay: as above
# Experimental: as §3, §4
# [5] = molecular target: T4, Human PD1-extracellular domain (ECD)-His; assay: SPR, Biacore T200, 37° C., mAb captured, PD1-ECD-His as analyte, mean ± SD, n=9
# Experimental: (§5) In subsequent experiments, Biacore was used to measure the binding kinetics for Antibody 1 to human and cynomolgus monkey PD1-extracellular domain (ECD)-His via surface plasmon resonance (SPR) at 37° C. by BIAcore® T200. For analyses at 37° C., binding is evaluated using multiple analytical cycles. Each cycle is performed at 37° C. at a flow rate of 10 μl/minute for mAb capture and 100 μl/minute for ligand association and dissociation. Each cycle consists of the following steps: injection of mAb at 2.5 μg/ml targeting a capture level of approximately 220RUs on flow cell 2, injection of 180 seconds of human or cynomolgus PD1-ECD-his (concentration range of […] to 1.6 nM by 2-fold serial dilution) followed by 600 second dissociation phase, and regeneration using 10 mM glycine hydrochloride, pH 1.5 over a 30 second contact time. Kon, Koff, and KD are calculated essentially as described above. Affinity data is reported as average and standard deviations determined from triplicate measurements in three independent experiments (mean±SD, n=9).
# [6] = molecular target: T1, Cynomolgus monkey PD1-extracellular …; assay: as above
# Experimental: as §5
# [7] = molecular target: T2, Cynomolgus monkey PD-1 (cell membrane …); assay: flow cytometry on CHO cells expressing cynomolgus monkey PD-1, GMFI, 4-parameter fit, average
# Description: as §1, §2
# [8] = molecular target: T4, Human PD1-extracellular domain (ECD)-His; assay: SPR, Biacore T200, 37° C., mAb captured, PD1-ECD-His as analyte, mean ± SD, n=9; 37° C. (n=9)
# Experimental: as §5
# T3 sequence (Q15116 25-288 limits assumed): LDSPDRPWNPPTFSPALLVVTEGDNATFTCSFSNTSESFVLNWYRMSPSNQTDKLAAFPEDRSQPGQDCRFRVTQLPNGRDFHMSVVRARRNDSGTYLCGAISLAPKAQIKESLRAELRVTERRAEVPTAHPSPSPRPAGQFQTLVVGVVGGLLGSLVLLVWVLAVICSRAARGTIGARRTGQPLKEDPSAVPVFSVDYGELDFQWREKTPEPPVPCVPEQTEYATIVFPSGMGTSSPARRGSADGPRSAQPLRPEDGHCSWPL
binder,measurement,setting,value
"Antibody 1 (antibody, human IgG1, kappa, V domains shown, Humanized IgG1 with kappa light chain; also called anti-human PD-1 agonist antibody; anti-human PD-1 agonist IgG1 antibody) VH: QVQLVQSGAEVKKPGASVKVSCKVSGYSLSKYDMSWVRQAPGKGLEWMGIIYTSGYTDYAQKFQGRVTMTEDTSTDTAYMELSSLRSEDTAVYYCATGNPYYTNGFNSWGQGTLVTVSS VL: DIQMTQSPSSLSASVGDRVTITCQASQSPNNLLAWYQQKPGKAPKLLIYGASDLPSGVPSRFSGSGSGTDFTLTISSLQPEDFATYYCQNNYYVGPVSYAFGGGTKVEIKR",inhibition of human PD-1 NFAT-luciferase reporter cell activity (IC50),[1],75.2 ng/mL
same,EC50,[2],1.3 µg/mL
same,Kd,[3],1 nM
same,koff,[3],0.00017 s⁻¹
same,kon,[3],170000 M⁻¹ s⁻¹
same,Kd,[4],4.7 nM
same,koff,[4],0.0011 s⁻¹
same,kon,[4],240000 M⁻¹ s⁻¹
same,Kd,[5],2.29 nM
same,koff,[5],0.000701 s⁻¹
same,Kd,[6],9.51 nM
same,koff,[6],0.00489 s⁻¹
same,kon,[6],519000 M⁻¹ s⁻¹
same,EC50,[7],1.09 µg/mL
same,kon,[8],307000 M⁻¹ s⁻¹
